Laboratory results reported in PMC8549803, “Dithiolane quartets: thiol-mediated uptake enables cytosolic delivery in deep tissue” (Chemical Science, 2021).
Entries after “also recorded” stand apart in the source; their conditions may differ. Where two headings read alike, the source gives them in different places.

Columns and labels:
[1] = Solubility of streptavidin/peptide complexes in water; assay type: physicochemical
Protocol: However, this interpretation should not be overestimated because the CP50 = 2.5 ± 0.2 μM remained near those of single dithiolane quartets in 19 and 1.

HGM cells = assay: 2D HC-CAPA (chloroalkane penetration assay), cytosolic delivery in 2D cell culture; assay type: cell-based; conditions: 4 h; for CP50, half maximal cell-penetration concentration: HGM cells (HeLa stably expressing HaloTag-GFP-Mito), complexes 0 to max 20 μM in Leibovitz's, 37 °C, then HRO 2 5 μM 15 min, high-content fluorescence imaging, Hill analysis of DRCs, duplicates; for Uptake activity in 2D CAPA, in words: HGM cells, up to 20 μM
Protocol: Cytosolic delivery into 2D cell culture was determined first using the chloroalkane penetration assay (CAPA).[55–57] This assay has been introduced recently by Kritzer et al. as a reliable tool to quantitatively measure cytosolic delivery.[55–57] The CAPA method operates with HGM cells, i.e. HeLa cells that stably express a fusion protein of HaloTag and GFP on mitochondria (Fig. 1c). Chloroalkylated transporters that reach the cytosol will react with these HaloTags, while all unused HaloTags will react with subsequently added chloroalkylated TAMRA 2. The result is decreasing TAMRA fluorescence with increasing uptake of transporters. Automated high-content high-throughput imaging has been introduced to measure TAMRA fluorescence only inside of healthy cells and generate high-precision dose–response curves (DRCs, Fig. 3) while simultaneously reporting on cell viability.[50] The uptake efficiency is reported as CP50 value, that is the transporter concentration needed to inhibit HaloTag labeling with 2 by 50%, determined by the Hill analysis of DRCs. In conventional 2D cell culture, complex 1 afforded CP50 = 3.6 ± 0.3 μM (Fig. 2, 3a, filled circles, Table 1).
Complex 22 was similarly prepared using 6 µL of peptide 12 (10 mM in DMSO, 3 […]
Complex 23 was similarly prepared using 4 µL of peptide 13 (10 mM in DMSO, 2 […]
Complex 24 was similarly prepared using 2 µL each of peptides 12 and 13 (10 mM in DMSO, 1 equivalent each).
Complex 25 was similarly prepared using 4 µL of peptide 14 (10 mM in DMSO, 2 […]
Complex 26 was similarly prepared using 2 µL each of peptides 13 and 14 (10 mM in […]
HeLa cells stably expressing the HaloTag-GFP-Mito fusion protein (HGM): The cells were originally designed by the Chenoweth lab as described in ref. S10. They were cultured using the described procedure in ref. S4.
3.2.1 General HC-CAPA protocol
As in ref. S11, HGM cells were seeded at 8 ×10^4 cells/mL in FluoroBrite DMEM + 10% FBS on μ-Plates 96-well ibiTreat sterile and kept at 37 °C with 5% CO2 overnight. Next day, cells were washed with PBS ([…]) and the media were exchanged to Leibovitz’s (4 × 150 μL/well) using a plate washer, keeping a final volume of 135 μL/well. Then, serial dilutions of the corresponding complexes 1, 15-26 in PBS were prepared in a 96-well V-bottom plate and added to the μ-Plate containing the cells (15 μL/well, 10x final concentration in PBS) to reach a final volume of 150 μL/well (0 to maximum 20 μM). Cells were incubated for 4 h at […]
37 °C with 5% CO2. After this, cells were washed again and HRO 2 was added (15 μL/well, 50 μM in PBS) to reach a final volume of 150 μL/well (5 μM), except for the control wells, where only PBS was added (15 μL/well). After 15 min of incubation at 37 °C with 5% CO 2, the plate was washed again. Then, Hoechst 33342 was added (15 μL/well, 170 μM in PBS) to reach a final volume of 150 μL/well (17 μM). After 15 min of incubation at 37 °C with 5% CO2, the plate was washed one last time and the cells were kept in clean Leibovitz’s media.
During imaging, samples were kept at 37 °C with 5% CO2. A total of 16 images/well at 40x were recorded, using three channels: blue (excitation filter: 37 7/50 nm, emission filter: 477/60 nm, exposure time: 10 ms), green (excitation filter: 475/34 nm, emission filter: 536/40 nm, exposure time: 20 ms) and red (excitation filter: 531/40 nm, emission filter: 593/40 nm, […]
(§1) Duplicates were performed for each condition.
Fig. S2 Blue channel recording the Hoechst 33342 localization in the nuclei (left), green channel recording the GFP signal in the mitochondria (middle) and red channel recording the signal from HRO 2 (right) covalently attached to HaloTag protein in the mitochondr ia. Scale […]
3.2.2. HC-CAPA analysis protocol
As in ref. S11, for each cell, the DAPI and GFP channel images were used for the segmentation of the nuclei and whole cell body, respectively. Three successive filters have then been used for the cell selection process: […]

HGM spheroids = assay: 3D HC-CAPA, cytosolic delivery in multicellular spheroids; assay type: cell-based; conditions: for Penetration of HGM spheroids (suppression of emission of CAPA probe 2), in words: 20 μM, 6 h, then 2 for 45 min, cross-sectional CSDM images 80 μm from surface; for SP50, half maximal spheroid-penetration concentration: 3D HC-CAPA, HGM spheroids 350–400 μm, complexes 0 to max 20 μM, 2 or 6 h, 37 °C, then HRO 2 5 μM 45 min, average TAMRA intensity over entire spheroid, Hill analysis of DRCs, duplicates
Protocol: Spheroids of HGM cells with an average size of 350–400 μm were prepared in cell-repellent U-bottom 96-well plates following standard procedures (Fig. 4a).[1–26] In cross-sectional confocal spinning disc microscopy (CSDM) images taken 80 μm from the surface, GFP emission was homogeneously distributed (Fig. 4b). Similarly the homogeneous cross-sectional TAMRA emission upon addition of 2 was consistent with unhindered passive diffusion of the small, cationic CAPA probe across the spheroid (Fig. 4c, m, red circles, 1c). […] Line-scan analysis of the TAMRA intensity along the cross-section in the CSDM image gave an almost linear decrease (Fig. 4m, green squares). […] Comparison of the line-scan analyses for 20 μM 19 after 2 h and 6 h incubation illustrated how transporter 19 penetrates the spheroids with time from the periphery to the center as expected for operational transcytosis (Fig. 4m, l vs. i). […] At c ∼ SP50, thiol-mediated delivery decreases linearly with increasing depth because the limited amount of transporter 19 provided is gradually consumed by kinetically competing direct translocation and irreversible reaction with the HaloTags on the mitochondria of the cells on the way into the spheroids. […]
HGM cells were seeded at 5 × 10^3 cells/mL in FluoroBrite DMEM + 10% FBS on NunclonTM SpheraTM U-bottom 96-well sterile μ-Plates and kept at 37 °C with 5% CO2 for 3 days. After the spheroids were formed, the medium was exchanged to Leibovitz’s (6 × 200 μL/well) using a Biotek MultiFloTM FX plate washer, keeping a final volume of 135 μL/well.
Then, serial dilutions of the corresponding complexes 18-20 in PBS were prepared in a 96-well V-bottom plate and added to the μ-Plate containing the spheroids (15 μL/well, 10x final concentration in PBS) to reach a final volume of 150 μL/well (0 to maximum 20 μM). Cells were incubated for 2 or 6 h at 37 °C with 5% CO2. After this, cells were washed again and HRO 2 was added (15 μL/well, 50 μM in PBS) to reach a final volume of 150 μL/well (5 μM), except for the control wells, where only PBS was added (15 μL/well). After 45 min of incubation at 37 °C with 5% CO2, the plate was washed again. Then, the plate was kept for 1 h at 37 °C with 5% CO2 and was washed again. During imaging, samples were kept at 37 °C with 5% CO2. A z-stack of 19 images/well (10 μm per step) at 10x were recorded, using two channels: green (excitation filter: 475/34 nm, emission filter: 536/40 nm, exposure time: 200 ms) and red (excitation filter: 531/40 nm, emission filter: 593/40 nm, exposure time: 200 ms), […]
as §1
Fig. S4 TL channel (left), Green channel recording the GFP signal in the mitochondria (middle left) and red channel recording the signal from HRO 2 (middle right) covalently attached to HaloTag protein in the mitochondria. Merged images showing colocalization of G FP and HRO 2 signals (right). Images are 2D projections of all planes. Scale bar: 100 μm.
3.3.2 3D HC-CAPA analysis protocol
For each spheroid, the TL and green channel images were used for the segmentation of the object. A gaussian filter was applied to blur the image and allow the creation of the spheroid […]
Fig. S5 Green channel recording the GFP signal in the mitochondria (left), applied Gaussian filter (middle) to generate the spheroid mask in white (right). Images are 2D projections of all planes. Scale bar: 100 μm. […]
3.3.2 3D HC-CAPA results for uptake quantification […]

[2] = streptavidin/peptide complex in water

Row | Substance | Solubility of complex in water, in words [1, 2] | CP50, half maximal cell-penetration concentration (HGM cells) | Uptake activity in 2D CAPA, in words (HGM cells) | Penetration of HGM spheroids (suppression of emission of CAPA probe 2), in words (HGM spheroids) | SP50, half maximal spheroid-penetration concentration (HGM spheroids) | Solubility of complex in water, in words [1]
1 | EEEEEE [compound 23, streptavidin 3/peptide 13 (EEEEEE) 1 : 2 complex] | soluble | >20 µM | inactive | – | – | –
2 | EEEUUU [compound 19, 1 : 3 streptavidin 3/peptide 9 (EEEUUU) complex] | – | 3.8 ± 0.2 µM | preserved activity | almost complete disappearance of all fluorescence; also recorded: suppressed fluorescence throughout the spheroid | 5.3 ± 0.9 µM | –
3 | EEUUUU [compound 21, 1 : 3 streptavidin 3/peptide 11 (EEUUUU) complex] | – | 2.5 ± 0.2 µM | most active of all transporters | – | – | –
4 | EUEUEU [compound 1] | – | 3.6 ± 0.3 µM | – | suppressed fluorescence throughout the spheroid | – | –
5 | EUEUeU [compound 16, 1 : 3 streptavidin 3/peptide 6 (EUEUeU) complex] | – | 16 ± 2 µM | – | – | – | –
6 | EUUUUU [streptavidin complex of EUUUUU peptide, insoluble, not finalized] | – | – | – | – | – | insoluble in water
7 | KKKKKK [compound 25, streptavidin 3/peptide 14 (KKKKKK) 1 : 2 complex, isostructural CPP control] | – | 2.8 ± 0.3 µM | in the range of the best dithiolane quartets | failed to penetrate HGM spheroids | – | –
8 | UUUEEE [compound 20, 1 : 3 streptavidin 3/peptide 10 (UUUEEE) complex] | – | > 20 µM | inactive | – | 17 ± 6 µM | –
9 | UUUUUU [compound 22] | insoluble in water | >20 µM | – | – | – | –
